The target of assay [1] is angiotensin I converting enzyme (ACE). Nature of the assay: cell-based or functional assay.
Assay [2] has the same target. Nature of the assay: cell-based or functional assay. This is another data set of the same source.

B1: tripeptide Methionine-Alanine-Proline (Met-Ala-Pro) (peptide)
peptide: MAP
For the molecule B1, in assay [1], the “ACE inhibition (IC50 value), at-line ACE assay (cleavage of HHL)” value (“ACE inhibition … (cleavage of HHL)” for short) was found to be 3.8 µM and the “ACE inhibition (IC50 value), modified Matsui assay (cleavage of Hip-His-Leu)” value (shortened to “ACE inhibition … (cleavage of Hip-His-Leu)”) came to 0.4 µM. For the same molecule, the “IC50 value in the Modified Matsui test (ACE inhibition)” value in assay [2] is 0.5 µmol/L.

B2: tripeptide IPP (peptide)
peptide: IPP
B2: in assay [1], the “ACE inhibition … (cleavage of HHL)” value came to 7.1 µM and the “ACE inhibition … (cleavage of Hip-His-Leu)” value is 2 µM.

B3: tripeptide Isoleucine-Threonine-Proline (Ile-Thr-Pro) (peptide)
peptide: ITP
As to B3, in assay [1], the “ACE inhibition … (cleavage of HHL)” value came to 50 µM and the “ACE inhibition … (cleavage of Hip-His-Leu)” value turned out to be 10 µM.

(Values after patent US20090131331A1 (DSM IP ASSETS B V, published 2009).)
